# Source: paper doi:10.1101/2020.05.01.070730 (bioRxiv, 2020)
# Numbering of substitutions follows the chain as printed.
# T1: MutS (Pseudomonas aeruginosa, UniProt Q9HY08 1-855)
# T1 sequence: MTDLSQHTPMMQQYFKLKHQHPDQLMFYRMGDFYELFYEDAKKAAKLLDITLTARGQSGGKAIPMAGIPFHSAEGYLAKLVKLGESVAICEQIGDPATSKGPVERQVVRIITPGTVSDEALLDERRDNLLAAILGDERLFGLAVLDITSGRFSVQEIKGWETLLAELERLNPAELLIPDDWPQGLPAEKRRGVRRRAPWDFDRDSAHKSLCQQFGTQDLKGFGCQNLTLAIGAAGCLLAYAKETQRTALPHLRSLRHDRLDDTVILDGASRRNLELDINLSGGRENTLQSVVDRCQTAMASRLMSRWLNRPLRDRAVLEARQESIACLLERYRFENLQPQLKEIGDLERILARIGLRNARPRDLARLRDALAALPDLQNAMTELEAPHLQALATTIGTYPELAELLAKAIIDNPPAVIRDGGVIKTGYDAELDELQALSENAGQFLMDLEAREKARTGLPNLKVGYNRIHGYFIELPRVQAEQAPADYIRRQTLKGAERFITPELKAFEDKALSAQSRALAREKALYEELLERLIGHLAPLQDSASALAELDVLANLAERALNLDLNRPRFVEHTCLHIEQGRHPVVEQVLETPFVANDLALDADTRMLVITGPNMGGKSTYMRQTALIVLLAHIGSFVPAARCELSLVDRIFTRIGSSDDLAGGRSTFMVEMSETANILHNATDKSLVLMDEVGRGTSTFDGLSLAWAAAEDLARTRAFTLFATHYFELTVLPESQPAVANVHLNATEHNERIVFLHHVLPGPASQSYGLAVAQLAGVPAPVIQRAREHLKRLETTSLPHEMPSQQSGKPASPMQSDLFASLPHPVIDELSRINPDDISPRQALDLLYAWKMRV
# T2: MutS R842E (Pseudomonas aeruginosa, UniProt Q9HY08 1-855, R842E)
# T2 sequence: T1 sequence with R842E
# B1: AC-pDNA (dsDNA)
# DNA 1: ATGTGAATCAGTATGGTTACTATCTGC
# DNA 2: ATTTCCTTCAGCAGATAGCAACCATACTGATTCACAT
# B2: CT-pDNA (dsDNA)
# DNA 1: ATGTGAATCAGTATGGTTCCTATCTGC
# DNA 2: B1 DNA 2 with C19T
# B3: CA-pDNA (dsDNA)
# DNA 1: ATGTGAATCAGTATGGTTCCTATCTGC
# DNA 2: B1 DNA 2 with C19A
# B4: TT-pDNA (dsDNA)
# DNA 1: ATGTGAATCAGTATGGTTTCTATCTGC
# DNA 2: B1 DNA 2 with C19T
# B5: TG-pDNA (dsDNA)
# DNA 1: ATGTGAATCAGTATGGTTTCTATCTGC
# DNA 2: B1 DNA 2 with C19G
# B6: GT-pDNA 13 nt (dsDNA)
# DNA 1: ATGTGAATCAGTATGGTTGCTATCTGCTGAAG
# DNA 2: B1 DNA 2 with C19T
# B7: GG-pDNA (dsDNA)
# DNA 1: ATGTGAATCAGTATGGTTGCTATCTGC
# DNA 2: B1 DNA 2 with C19G
# B8: GA-pDNA (dsDNA)
# DNA 1: ATGTGAATCAGTATGGTTGCTATCTGC
# DNA 2: B1 DNA 2 with C19A
# B9: TC-pDNA (dsDNA)
# DNA 1: ATGTGAATCAGTATGGTTTCTATCTGC
# DNA 2: B1 DNA 2
# B10: CC-pDNA (dsDNA)
# DNA 1: ATGTGAATCAGTATGGTTCCTATCTGC
# DNA 2: B1 DNA 2
# B11: MutS from Pseudomonas aeruginosa (natural protein, UniProt Q9HY08 1-855, looked up)
# chain: T1 sequence
# B12: MutSF33A (natural protein, Pseudomonas aeruginosa, UniProt Q9HY08 1-855, looked up)
# chain: T1 sequence with F33A
# B13: MutSR842E (natural protein, Pseudomonas aeruginosa, UniProt Q9HY08 1-855, looked up)
# chain: T1 sequence with R842E
# B14: MutSR272A (natural protein, Pseudomonas aeruginosa, UniProt Q9HY08 1-855, looked up)
# chain: T1 sequence with R272A
# B15: MutSR272E (natural protein, Pseudomonas aeruginosa, UniProt Q9HY08 1-855, looked up)
# chain: T1 sequence with R272E
# B16: MutSN279A (natural protein, Pseudomonas aeruginosa, UniProt Q9HY08 1-855, looked up)
# chain: T1 sequence with N279A
# Molecular target: T1, MutS
# Assay: native PAGE shift
row,Binder,binding result
1,B1,binds

# Molecular target: T1, MutS
# Assay: native PAGE shift
# Remark: another data set of the same source
row,Binder,binding result
1,B2,binds

# Molecular target: T1, MutS
# Assay: native PAGE shift
# Remark: another data set of the same source
row,Binder,binding result
1,B3,binds
2,B4,binds
3,B5,binds

# Molecular target: T1, MutS
# Assay: native PAGE shift
# Remark: another data set of the same source
row,Binder,binding result
1,B6,binds
2,B7,binds
3,B8,binds
4,B9,binds
5,B10,binds

# Molecular target: T2, MutS R842E
# Assay: native PAGE shift
row,Binder,binding result
1,B6,binds

# Molecular target: T2, MutS R842E
# Assay: native PAGE shift
# Remark: another data set of the same source
row,Binder,binding result
1,B7,binds
2,B8,binds
3,B4,binds
4,B2,binds
5,B5,binds
6,B1,binds
7,B9,binds
8,B10,binds

# Molecular target: the molecule itself
# Assay: native gel or EMSA
row,Binder,stoichiometry N
1,B11,4
2,B12,4
3,B13,2
4,B14,4
5,B15,4
6,B16,4
